Columns and labels:
EAE in Lewis rats [1] = test: Treatment of ongoing EAE after disease onset; format: in vivo
EAE in Lewis rats [2] = test: Prevention of EAE by pretreatment before encephalitogenic challenge; format: in vivo; settings: HEK293-derived
[3] = Table 6 Experiment 1, s.c. day 9 (1 nmole), day 10 (1 nmole), day 12 (0.5 nmole) after DHFR-NAg in CFA day 0
[4] = Table 6 Experiment 2, 1 nmole s.c. on days 9, 10, 12, and 14 after DHFR-NAg in CFA day 0
[5] = Table 6 Experiments 1 & 2 compiled, treatment from day 9 after onset
[6] = Table 7 Experiment 2, 1 nmole s.c. days 9, 10, 12, and 14, severe EAE = scores from 1.0 to 3.0
[7] = Table 7 Experiment 2, 1 nmole s.c. in saline days 9, 10, 12, and 14, IFNβ + NAg as mixture
[8] = Table 7 Experiment 3, 1 nmole s.c. days 9, 10, and 12, severe EAE = scores from 1.0 to 3.0
[9] = Table 7 Experiment 3, 1 nmole s.c. in saline days 9, 10, and 12, IFNβ + NAg as mixture
[10] = Table 7 Experiments 1-3 compiled, 1 nmole s.c. after onset
[11] = Table 7 Experiments 1-3 compiled, severe EAE = scores from 1.0 to 3.0
[12] = Table 4 Exp. 1 & 2 combined, 1 nmole days −21, −14, −7, challenge day 0
[13] = Table 4 Exp. 1, 1 nmole in saline days −21, −14, −7, challenge DHFR-NAg in CFA day 0
[14] = Table 4 Exp. 2, 1 nmole in saline days −21, −14, −7, challenge DHFR-NAg in CFA day 0

B1: IFNβ: Rat interferon beta cytokine with enterokinase linker and 6-histidine sequence, no neuroantigen (protein)
chain: IDYKQLQFRQSTSIRTCQKLLRQLNGRLNLSYRTDFKIPMEVMHPSQMEKSYTAFAIQVMLQNVFLVFRSNFSSTGWNETIVESLLDELHQQTELLEIILKEKQEERLTWVTSTTTLGLKSYYWRVQRYLKDKKYNSYAWMVVRAEVFRNFSIILRLNRNFQNGDDDDKGHHHHHH
EAE in Lewis rats [1]; [3]
  % mean maximal weight loss: 10.6 ± 5.3%
  Incidence of severe EAE: 5 of 6
  Mean # days with severe EAE: 1.4 ± 1.1 days
  Mean cum. score: 11.1 ± 5.1
  Mean maximal score: 2.2 ± 0.8
  Median cum. score: 10.3
  Median maximal score: 2.0
EAE in Lewis rats [1]; [4]
  % mean maximal weight loss: 20.7 ± 1.9%
  Incidence of severe EAE: 3 of 5
  Mean # days with severe EAE: 1.3 ± 1.4 days
  Mean cum. score: 11.2 ± 5.9
  Mean maximal score: 2.0 ± 1.0
  Median cum. score: 8.3
  Median maximal score: 2.0
EAE in Lewis rats [1]; [5]
  % mean maximal weight loss: 15.2 ± 6.5%
  Incidence of severe EAE: 8 of 11
  Mean # days with severe EAE: 1.4 ± 1.2 days
  Mean cum. score: 11.1 ± 5.2
  Mean maximal score: 2.1 ± 0.8
  Median cum. score: 8.3
  Median maximal score: 2.0
EAE in Lewis rats [1]; [6]
  Incidence of severe EAE: 6 of 6
  Mean # days with severe EAE (A-P): 1.9 ± 2.1 days
EAE in Lewis rats [1]; [7]
  Mean cum. score: 7.2 ± 3.8
  Mean maximal score: 2.2 ± 1.0
  Median cum. score: 5.9
  Median maximal score: 2.5
EAE in Lewis rats [1]; [8]
  Incidence of severe EAE: 2 of 7
  Mean # days with severe EAE (A-P): 0.4 ± 0.6 days
EAE in Lewis rats [1]; [9]
  Mean cum. score: 3.1 ± 2.2
  Mean maximal score: 1.0 ± 1.1
  Median cum. score: 2.5
  Median maximal score: 0.5
EAE in Lewis rats [1]; [10]
  Mean cum. score: 5.0 ± 3.6
  Mean maximal score: 1.5 ± 1.2
  Median cum. score: 4.0
  Median maximal score: 1.0
EAE in Lewis rats [1]; [11]
  Incidence of severe EAE: 8 of 13
  Mean # days with severe EAE (A-P): 1.1 ± 1.7 days
EAE in Lewis rats [1]; treatment after onset, disease rebound after cessation on day 12 or day 14
  course of EAE during treatment: initial suppression of EAE
EAE in Lewis rats [2]; [12]
  Incidence of EAE: 8 of 8
  Incidence of severe EAE: 8 of 8
  Mean # days with severe EAE: 3.4 ± 0.8 days
  Mean cumulative score: 22.8 ± 4.0
  Mean maximal score: 2.9 ± 0.4
  Median cumulative score: 22.5
  Median maximal score: 3.0
EAE in Lewis rats [2]; Table 4 Exp. 1, 1 nmole days −21, −14, −7, challenge day 0
  Mean # days with severe EAE: 3.0 ± 0.4 days
EAE in Lewis rats [2]; Table 4 Exp. 1, 1 nmole days −21, −14, −7, challenge day 0, severe = partial or full hindlimb paralysis
  Incidence of severe EAE: 4 of 4
EAE in Lewis rats [2]; [13]
  Incidence of EAE: 4 of 4
  Mean cumulative score: 22.0 ± 2.6
  Mean maximal score: 3.0 ± 0.0
  Median cumulative score: 21.3
  Median maximal score: 3.0
EAE in Lewis rats [2]; Table 4 Exp. 2, 1 nmole days −21, −14, −7, challenge day 0
  Mean # days with severe EAE: 3.9 ± 0.9 days
EAE in Lewis rats [2]; Table 4 Exp. 2, 1 nmole days −21, −14, −7, challenge day 0, severe = partial or full hindlimb paralysis
  Incidence of severe EAE: 4 of 4
EAE in Lewis rats [2]; [14]
  Incidence of EAE: 4 of 4
  Mean cumulative score: 23.7 ± 5.3
  Mean maximal score: 2.8 ± 0.5
  Median cumulative score: 23.6
  Median maximal score: 3.0
